{
  "source": "paper PMC3458019",
  "assay": "mouse liver sections 10 min after injection, anti-FX/CD68 staining",
  "settings": "glycan lost; control: pd-FX",
  "data": [
    {"substance": "Factor X (FX): PNGase F (N-degly-FX)", "values": [
      {"measurement": "localisation_or_trafficking", "value": "changes, the localization of FX was predominantly to hepatocytes"}
    ]}
  ]
}
